Like-named read-outs stand apart in the source and are kept apart here.
Tests used:
[1] = cocaethylene; cited from earlier work
[2] = Half-life of CocE in rat plasma; format: in vitro ADME
Procedure: CocE's protective effects were eliminated when rats were treated 100 min prior to cocaine. This time-dependent effect is most likely due to the thermal deactivation of the enzyme in vivo.

[3] = Time-dependent inactivation of CocE in vitro (incubation at temperature, then activity)
Procedure: For time-dependent inactivation of CocE in vitro, purified CocE enzyme (at 250 ng/ml) was incubated in assay buffer in the absence of cocaine at 37° C. for various times. Following incubation at 37° C. the samples were placed on ice. To assess the effect of temperature on CocE activity, samples were incubated with (−) cocaine at various concentrations as indicated at a final enzyme concentration of 125 ng/ml. The rate of decay of (−)-cocaine at A240 was measured on a multiplate reader.

[4] = Cocaine spectrophotometric assay (240 nm), Michaelis-Menten kinetics
[5] = test system: cocaine-induced lethality; experiment: Cocaine toxicity in mice, incl. repeated CocE doses; format: in vivo, mouse
Excerpt: The animal toxicity model was similar to that described previously, except as described. Male NIH Swiss mice were used. For tail intravenous injection, mice are placed in a small restraint chamber that exposes their tail. A heat lamp with an infrared, 250 w bulb is placed about 4 inches from the tail, and left for a couple of minutes. The tail is then cleansed with an alcohol wipe and a 30 G ½ precision glide needle (Fisher Scientific), is inserted into one of the side veins for infusion. To verify whether the needle is in the vein a small amount of drug is infused, if in the correct location the solution should infuse easily without any indication of an incorrect subcutaneous location, which appears white at the site of injection. For intravenous catheterization, Male NIH Swiss mice are anesthetized with ketamine 100 mg/kg and xylazine 10 mg/kg co-administered i.p. When mice are no longer responsive to paw pressure, the neck is shaved and prepped by alternating Betadine and alcohol wipes. Under clean conditions, a right transverse neck incision is made and the external jugular vein is isolated. A catheter is inserted into the vein with the aid of a dissecting microscope to the level of the right atrium, and is secured in the vein with nylon, 4-0 sutures and tissue adhesive, 3M Vetbond (3M Animal Care Products, St. Paul, Minn.). The catheters are a short length of Tygon tubing with an inner diameter of 0.010 in. and an outer diameter of 0.030 in. (Small Parts, Inc., Miami Lakes, Fla.). A small incision is made in the middle of the animal's back, and a trocar inserted subcutaneously to exit at the ventral incision site. The catheter is then pulled through the trocar and brought out the animal's back where it is held in place with nylon suture material and the tissue adhesive. A short piece of steel wire with a diameter of 0.011 in. (Small Parts, Inc., Miami Lakes, Fla.) is inserted into the end of the catheter. The ventral incision is closed with 4-0 Vicryl suture material and the mouse placed under a heat lamp for recovery. Approximately an hour later, the mouse is returned to its home cage.
Mice that survived a first administration of the combination of 0.32 mg CocE and 320 mg/kg cocaine were given this combination again, 14 days following the initial administration.

[6] = purified wild-type, cocaine, PBS pH 7.4

B1: CocE: wild-type cocaine esterase of Rhodococcus sp. MB 1, SEQ ID NO: 1, Accession No. AF173165 (protein)
chain: MVDGNYSVASNVMVPMRDGVRLAVDLYRPDADGPVPVLLVRNPYDKFDVFAWSTQSTNWLEFVRDGYAVVIQDTRGLFASEGEFVPHVDDEADAEDTLSWILEQAWCDGNVGMFGVSYLGVTQWQAAVSGVGGLKAIAPSMASADLYRAPWYGPGGALSVEALLGWSALIGTGLITSRSDARPEDAADFVQLAAILNDVAGAASVTPLAEQPLLGRLIPWVIDQVVDHPDNDESWQSISLFERLGGLATPALITAGWYDGFVGESLRTFVAVKDNADARLVVGPWSHSNLTGRNADRKFGIAATYPIQEATTMHKAFFDRHLRGETDALAGVPKVRLFVMGIDEWRDETDWPLPDTAYTPFYLGGSGAANTSTGGGTLSTSISGTESADTYLYDPADPVPSLGGTLLFHNGDNGPADQRPIHDRDDVLCYSTEVLTDPVEVTGTVSARLFVSSSAVDTDFTAKLVDVFPDGRAIALCDGIVRMRYRETLVNPTLIEAGEIYEVAIDMLATSNVFLPGHRIMVQVSSSNFPKYDRNSNTGGVIAREQLEEMCTAVNRIHRGPEHPSHIVLPIIKR
modifications: Rhodococcus sp. MB1
[1]
  Kcat: 9.4 s⁻¹
  Km: 1.6 µM
[2]
  half-life: about 10 minutes
[3]; at 4° C.
  t1/2 of CocE: greater than 6 months
[3]; at 37° C.
  t1/2 of CocE: approximately 15 minutes
[4]; 40 min @ 37° C.
  Km: 12.3 µM
[4]; no preincubation
  Km: 71.8 µM
[4]; [6]
  Kcat: approx. 500 min^−1
  Km: ~2 µM
[5]; 0.32 mg CocE and 320 mg/kg cocaine, 14 days following the initial administration
  survival on second administration: All of the mice survived
[5]; 0.32 mg CocE and 320 mg/kg cocaine, 21 days following the first dose
  survival on third administration: All mice also survived
[5]; 1.0 gm/kg cocaine plus 1.0 mg of CocE, mice
  time to death (average): 28 min
[5]; both 0.32 and 1.O 'mg/kg cocaine' as printed, mice
  shift in the potency of cocaine in producing death: dramatic shift to the right
